Reference: US11278600B2, “Human alpha-galactosidase variants” (Codexis, Inc., priority 2014, dated 2022)
Where a chain is given by its changes, count along the chain named.

B1: 679 (protein)
chain: LDNGLARTPPMGWLHWERFMCNLDCQEEPDSCISEKLFEEMAERMVTEGWKDAGYEYLCIDDCWMAPQRDSEGRLQADPQRFPHGIRQLANHVHSKGLKLGIYADVGNKTCAGFPGSFGYYDIDAQTFADWGVDLLKFDGCYCDSLENLADGYKHMSLALNRTGRPIVYSCEWPLYMWPFQKPNYTEIRQYCNHWRNFADIDDSWASIKSILDWTSRNQERIVDVAGPGGWNDPDMLVIGNFGLSWDQQVTQMALWAIMAAPLFMSNDLRAISPQAKALLQDKDVIAINQDPLGKQGYQLRKGDLFEVWERPLSGDAWAVAIINRQEIGGPRSYTIPVASLGKGVACNPACFITQLLPVKRQLGFYNWTSRLKSHINPTGTVLLQLENTMQTSLKDLL
modifications: Synthetic Polypeptide sequence of Variant No. 679 of mature Human GLA
B2: 681 (protein)
chain: B1 chain with R7P, P10T, E39M, L305N
modifications: Synthetic Polypeptide sequence of Variant No. 681 of mature Human GLA
B3: 683 (protein)
chain: B1 chain with P10T, E43D, W246P, M253W, S273D, L305N, W368A
modifications: Synthetic Polypeptide sequence of Variant No. 683 of mature Human GLA
B4: 682 (protein)
chain: B1 chain with P10T, E39M, L305N, D316Y
modifications: Synthetic Polypeptide sequence of Variant No. 682 of mature Human GLA
B5: 641 (protein)
chain: B1 chain with S266P, L305N
modifications: Synthetic Polypeptide sequence of Variant No. 641 of mature Human GLA
B6: 685 (protein)
chain: B1 chain with P10T, E39M, E43D, M253W, A257G, W368A
modifications: Synthetic Polypeptide sequence of Variant No. 685 of mature Human GLA
B7: 688 (protein)
chain: B1 chain with P10T, E39M, P228Q, L305N
modifications: Synthetic Polypeptide sequence of Variant No. 688 of mature Human GLA
B8: 689 (protein)
chain: B1 chain with P10T, E39M
modifications: Synthetic Polypeptide sequence of Variant No. 689 of mature Human GLA
B9: 690 (protein)
chain: B1 chain with E39M, M156V, L305N
modifications: Synthetic Polypeptide sequence of Variant No. 690 of mature Human GLA
B10: 687 (protein)
chain: B1 chain with P10T, E39M, Q290R, L305N, W368A
modifications: Synthetic Polypeptide sequence of Variant No. 687 of mature Human GLA
B11: 684 (protein)
chain: B1 chain with P10T, E39M, L305N, W368A
modifications: Synthetic Polypeptide sequence of Variant No. 684 of mature Human GLA
B12: 691 (protein)
chain: B1 chain with E39M, L305N
modifications: Synthetic Polypeptide sequence of Variant No. 691 of mature Human GLA
B13: 680 (protein)
chain: B1 chain with L305N
modifications: Synthetic Polypeptide sequence of Variant No. 680 of mature Human GLA

What was measured:
Assay type in all cases: biochemical
[1] = HTP-analysis of supernatants pretreated with acid (MUGal hydrolysis); details: activity of the variant/activity of Rd7BB (SEQ ID NO: 44); challenge at pH 3.5
Summary of the method: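 MUGal hydrolysis was tracked by fluorescence (Ex 355 nm, Em 448 nm) after a 30-180 min reaction at 37° C. in pH 4.8 McIlvaine/citrate buffer, stopped with 1 M sodium carbonate. Beforehand, yeast (INVSc1) culture supernatants carrying GLA variants were held 1-3 h at 37° C. in acidic McIlvaine buffer, pH 3.3-4.3.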

[2] = HTP-analysis of yeast culture supernatants, no challenge (MUGal hydrolysis); details: activity of the variant/activity of Rd7BB (SEQ ID NO: 44)
Summary of the method: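 Activity read as 4-methylumbelliferyl α-D-galactopyranoside hydrolysis: fluorescence (355/448 nm) after sodium carbonate stop, following 30-180 min at 37° C with 2 mM MUGal stock at pH 4.6–4.8. Enzyme source is unchallenged culture supernatant of INVSc1 yeast expressing GLA variants, grown 66-84 h at 30° C.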

[3] = HTP-analysis of supernatants pretreated with base (MUGal hydrolysis); details: activity of the variant/activity of Rd7BB (SEQ ID NO: 44); challenge at pH 7.5
Summary of the method: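 GLA variants secreted from yeast INVSc1; culture supernatants pre-incubated with McIlvaine buffer pH 7.0–8.2 or 200 mM bicarbonate pH 9.1–9.7 at 37° C. for 1–18 h. Residual activity: MUGal (4 mM stock) hydrolysis at pH 4.3–4.8, 37° C., 30–180 min, carbonate quench; fluorescence Ex 355/Em 448 nm.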

| Molecule | Relative Activity of GLA Variants After Challenge at pH 3.5 [1] | Relative Activity of GLA Variants After No Challenge (NC) [2] | Relative Activity of GLA Variants After Challenge at pH 7.5 [3] |
| --- | --- | --- | --- |
| B1 | + (>0.5 to 1.5 relative activity over Rd7BB (SEQ ID NO: 44)) | + (>0.5 to 1.5 relative activity over Rd7BB (SEQ ID NO: 44)) | + (>0.5 to 1.5 relative activity over Rd7BB (SEQ ID NO: 44)) |
| B2 | − (<0.5 relative activity to Rd7BB (SEQ ID NO: 44)) | − (<0.5 relative activity to Rd7BB (SEQ ID NO: 44)) | − (<0.5 relative activity to Rd7BB (SEQ ID NO: 44)) |
| B3 | + (>0.5 to 1.5 relative activity over Rd7BB (SEQ ID NO: 44)) | + (>0.5 to 1.5 relative activity over Rd7BB (SEQ ID NO: 44)) | − (<0.5 relative activity to Rd7BB (SEQ ID NO: 44)) |
| B4 | + (>0.5 to 1.5 relative activity over Rd7BB (SEQ ID NO: 44)) | + (>0.5 to 1.5 relative activity over Rd7BB (SEQ ID NO: 44)) | + (>0.5 to 1.5 relative activity over Rd7BB (SEQ ID NO: 44)) |
| B5 | − (<0.5 relative activity to Rd7BB (SEQ ID NO: 44)) | − (<0.5 relative activity to Rd7BB (SEQ ID NO: 44)) | − (<0.5 relative activity to Rd7BB (SEQ ID NO: 44)) |
| B6 | − (<0.5 relative activity to Rd7BB (SEQ ID NO: 44)) | + (>0.5 to 1.5 relative activity over Rd7BB (SEQ ID NO: 44)) | − (<0.5 relative activity to Rd7BB (SEQ ID NO: 44)) |
| B7 | + (>0.5 to 1.5 relative activity over Rd7BB (SEQ ID NO: 44)) | + (>0.5 to 1.5 relative activity over Rd7BB (SEQ ID NO: 44)) | − (<0.5 relative activity to Rd7BB (SEQ ID NO: 44)) |
| B8 | + (>0.5 to 1.5 relative activity over Rd7BB (SEQ ID NO: 44)) | + (>0.5 to 1.5 relative activity over Rd7BB (SEQ ID NO: 44)) | + (>0.5 to 1.5 relative activity over Rd7BB (SEQ ID NO: 44)) |
| B9 | − (<0.5 relative activity to Rd7BB (SEQ ID NO: 44)) | + (>0.5 to 1.5 relative activity over Rd7BB (SEQ ID NO: 44)) | − (<0.5 relative activity to Rd7BB (SEQ ID NO: 44)) |
| B10 | − (<0.5 relative activity to Rd7BB (SEQ ID NO: 44)) | + (>0.5 to 1.5 relative activity over Rd7BB (SEQ ID NO: 44)) | − (<0.5 relative activity to Rd7BB (SEQ ID NO: 44)) |
| B11 | + (>0.5 to 1.5 relative activity over Rd7BB (SEQ ID NO: 44)) | + (>0.5 to 1.5 relative activity over Rd7BB (SEQ ID NO: 44)) | + (>0.5 to 1.5 relative activity over Rd7BB (SEQ ID NO: 44)) |
| B12 | + (>0.5 to 1.5 relative activity over Rd7BB (SEQ ID NO: 44)) | + (>0.5 to 1.5 relative activity over Rd7BB (SEQ ID NO: 44)) | + (>0.5 to 1.5 relative activity over Rd7BB (SEQ ID NO: 44)) |
| B13 | + (>0.5 to 1.5 relative activity over Rd7BB (SEQ ID NO: 44)) | + (>0.5 to 1.5 relative activity over Rd7BB (SEQ ID NO: 44)) | + (>0.5 to 1.5 relative activity over Rd7BB (SEQ ID NO: 44)) |
